Laboratory results from patent US20200291391A1, “CROSS-LINKED EPITOPES AND METHODS OF USE THEREOF” (Indi Molecular, Inc., priority 2019, published 2020).

What was measured:
[1] = molecular target: CD8 on CD8+ SupT1 cells (human) (UniProt P01732); test: flow cytometry on CD8+ SupT1 cells
[2] = molecular target: immobilized recombinant CD8 protein (UniProt P01732); test: solid-phase ELISA on immobilized recombinant CD8 protein
[3] = molecular target: CD8 on CD8+ SupT1 cells (human) (UniProt P01732); test: flow cytometry on CD8+ SupT1 cells; remark: listed apart in the source
[4] = molecular target: CD8 on CD8+ SupT1 cells (human) (UniProt P01732); test: flow cytometry on CD8+ SupT1 cells; ligand at 4 µM
[5] = molecular target: CD8 on CD8+ SupT1 cells (human) (UniProt P01732); test: flow cytometry on CD8+ SupT1 cells; ligand at 0.4 µM
[6] = molecular target: CD8 on CD8+ SupT1 cells (human) (UniProt P01732); test: flow cytometry on CD8+ SupT1 cells; ligand at 1.3 µM
[7] = molecular target: CD8 on CD8+ SupT1 cells (human) (UniProt P01732); test: flow cytometry on CD8+ SupT1 cells; ligand at 0.05 µM
[8] = molecular target: CD8 on CD8+ SupT1 cells (human) (UniProt P01732); test: flow cytometry on CD8+ SupT1 cells; ligand at 0.15 µM
[9] = molecular target: CD8 on CD8+ SupT1 cells (human) (UniProt P01732); test: flow cytometry on CD8+ SupT1 cells; ligand at 4 µM, 4° C.
[10] = molecular target: CD8 on CD8+ SupT1 cells (human) (UniProt P01732); test: flow cytometry on CD8+ SupT1 cells; ligand at 4 µM, room temperature

Sequence of CD8 on CD8+ SupT1 cells (human) (P01732 22-235): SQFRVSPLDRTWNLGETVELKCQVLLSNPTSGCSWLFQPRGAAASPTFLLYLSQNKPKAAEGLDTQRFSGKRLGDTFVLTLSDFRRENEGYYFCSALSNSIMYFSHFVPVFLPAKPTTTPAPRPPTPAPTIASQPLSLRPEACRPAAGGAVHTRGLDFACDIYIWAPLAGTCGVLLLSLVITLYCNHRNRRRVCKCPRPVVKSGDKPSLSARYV

MFIR (Mean Fluorescence Intensity Ratio) (ratio relative to Biotin1k-PEG) [1] | MFIR (Mean Fluorescence Intensity Ratio) (ratio relative to unstained) [1] | Substance | also measured
1.1 | – | Biotin-1kPEG-rftaf (SEQ ID NO: 37) (peptide) | –
1 | – | Biotin-1kPEG-rpyay (SEQ ID NO: 35) (peptide) | –
1.1 | – | Biotin-1kPEG-aykfn (SEQ ID NO: 36) (peptide) | –
1.1 | – | Biotin-1kPEG-yrpfy (SEQ ID NO: 31) (peptide) | –
1.2 | – | Biotin-1kPEG-nfyrr (SEQ ID NO: 32) (peptide) | EC50 [2]: 47 nM
– | 1.8 | Biotin-1kPEG-cy(tfpkk) (SEQ ID NO: 21) (peptide) | MFIR (Mean Fluorescence Intensity Ratio) (ratio relative to unstained) [4]: 1.5; MFIR (Mean Fluorescence Intensity Ratio) (ratio relative to unstained) [5]: 1.1; MFIR (Mean Fluorescence Intensity Ratio) (ratio relative to unstained) [6]: 1.1; MFIR (Mean Fluorescence Intensity Ratio) (ratio relative to unstained) [7]: 1; MFIR (Mean Fluorescence Intensity Ratio) (ratio relative to unstained) [8]: 1; MFIR (Mean Fluorescence Intensity Ratio) (ratio relative to unstained) [9]: 1.5; MFIR (Mean Fluorescence Intensity Ratio) (ratio relative to unstained) [10]: 1.5
– | 1.6 | Biotin-1kPEG-cy(krsah) (SEQ ID NO: 27) (peptide) | –

The remaining lines, values behind:

Substance | MFIR (Mean Fluorescence Intensity Ratio) (ratio relative to Biotin1k-PEG) [1] | MFIR (Mean Fluorescence Intensity Ratio) (ratio relative to unstained) [1] | also measured
Biotin-1kPEG-vlyrr (SEQ ID NO: 30) (peptide) | 2 | – | EC50 [2]: 77 nM
Biotin-1kPEG-cy(snprk) (SEQ ID NO: 28) (peptide) | – | 1.1 | –
Biotin anti-CD8a Ab (Clone RPA-T8) (antibody) | – | 73.9 | MFIR (Mean Fluorescence Intensity Ratio) (ratio relative to unstained) [3]: 86.6
Biotin-1kPEG-yfrsr (SEQ ID NO: 33) (peptide) | 1.1 | – | –
Biotin-1kPEG-yrsny (SEQ ID NO: 34) (peptide) | 1 | – | –
